According to paper PMC10348774:

B1: ADAM metallopeptidase domain 10 (ADAM10): tunicamycin (protein)
parent chain: MVLLRVLILLLSWAAGMGGQYGNPLNKYIRHYEGLSYNVDSLHQKHQRAKRAVSHEDQFLRLDFHAHGRHFNLRMKRDTSLFSDEFKVETSNKVLDYDTSHIYTGHIYGEEGSFSHGSVIDGRFEGFIQTRGGTFYVEPAERYIKDRTLPFHSVIYHEDDINYPHKYGPQGGCADHSVFERMRKYQMTGVEEVTQIPQEEHAANGPELLRKKRTTSAEKNTCQLYIQTDHLFFKYYGTREAVIAQISSHVKAIDTIYQTTDFSGIRNISFMVKRIRINTTADEKDPTNPFRFPNIGVEKFLELNSEQNHDDYCLAYVFTDRDFDDGVLGLAWVGAPSGSSGGICEKSKLYSDGKKKSLNTGIITVQNYGSHVPPKVSHITFAHEVGHNFGSPHDSGTECTPGESKNLGQKENGNYIMYARATSGDKLNNNKFSLCSIRNISQVLEKKRNNCFVESGQPICGNGMVEQGEECDCGYSDQCKDECCFDANQPEGRKCKLKPGKQCSPSQGPCCTAQCAFKSKSEKCRDDSDCAREGICNGFTALCPASDPKPNFTDCNRHTQVCINGQCAGSICEKYGLEECTCASSDGKDDKELCHVCCMKKMDPSTCASTGSVQWSRHFSGRTITLQPGSPCNDFRGYCDVFMRCRLVDADGPLARLKKAIFSPELYENIAEWIVAHWWAVLLMGIALIMLMAGFIKICSVHTPSSNPKLPPPKPLPGTLKRRRPPQPIQQPQRQRPRESYQMGHMRR
B2: ADAM metallopeptidase domain 10 (ADAM10): DPAGT1 silencing (protein)
parent chain: B1 parent chain
B3: ADAM metallopeptidase domain 10 (ADAM10): N278Q (protein)
parent chain: B1 parent chain
B4: ADAM metallopeptidase domain 10 (ADAM10): DPAGT1 inhibition/knockdown + Eer I or MG132 (protein)
parent chain: B1 parent chain
B5: ADAM metallopeptidase domain 10 (ADAM10): N267Q (protein)
parent chain: B1 parent chain

Legend:
[1] = flow cytometry of membrane ADAM10; settings: glycan lost; control: control SK-BR-3
[2] = IB of endogenous pre- and matADAM10; settings: glycan lost; control: untreated / vector SK-BR-3
[3] = IB and IF with ER marker Calnexin; settings: glycan lost; control: wild type (implied)
[4] = IB after Eer I or MG132 rescue; settings: glycan lost; control: untreated SK-BR-3
[5] = IB of precursor and mature forms; settings: glycan lost; control: wild type (implied)

Row | Protein | localisation_or_trafficking [1] | expression_or_secretion [2] | further results
1 | B1 | decreases | decreases | –
2 | B2 | decreases | decreases | –
3 | B3 | – | – | localisation_or_trafficking [3]: changes
4 | B4 | – | – | other: proteolytic processing [4]: abolishes
5 | B5 | – | – | other: proteolytic processing [5]: no change
